Measurements: patent US20230406921A1 (MABWELL SHANGHAI BIOSCIENCE, published 2023)

target: T1, recombinant antigen of the extracellular region of CD47 (Sino Biological, Cat: 12283-H08H) (human, UniProt Q08722 19-139); assay: Fortebio BLI, recombinant CD47 extracellular region
T1 construct: extracellular domain; also called recombinant CD47 extracellular region; CD47 recombinant protein

Kd | koff | kon | Binder
6.17 nM | 0.00216 s⁻¹ | 350000 M⁻¹ s⁻¹ | 140Hm4/hz140L (Table 2) (antibody, V domains shown, also called hz140-Hm/hz140L) VH: QVQLVQSGAEVKKPGASVKVSCKASGYKFTNYVMHWVRQAPGQRLEWMGWINPYNDGIKYNEKFTGRVTITRDTSASTAYMELSSLRSEDTAVYYCAREGDFYANYGRLGFAYWGQGTLVTVSS VL: DIQMTQSPSSLSASVGDRVTITCRASQDITNYLNWYQQKPGKAPKLLIYYTSRLHSGVPSRFSGSGSGTDYTFTISSLQPEDIATYFCQQGDTFPRTFGGGTKVEIK
3.87 nM | 0.00094 s⁻¹ | 243000 M⁻¹ s⁻¹ | 140Hm8/hz140L (Table 2) (antibody, V domains shown, also called hz140-Hm/hz140L) VH: QVQLVQSGAEVKKPGASVKVSCKASGYKFTNYVMHWVRQAPGQRLEWMGYINPYNDAIKYNEKFTGRVTITRDTSASTAYMELSSLRSEDTAVYYCAREGDFYANYGRLGFAYWGQGTLVTVSS VL: DIQMTQSPSSLSASVGDRVTITCRASQDITNYLNWYQQKPGKAPKLLIYYTSRLHSGVPSRFSGSGSGTDYTFTISSLQPEDIATYFCQQGDTFPRTFGGGTKVEIK
61.4 nM | 0.0131 s⁻¹ | 213000 M⁻¹ s⁻¹ | 140Hm7/hz140L (Table 2) (antibody, V domains shown, also called hz140-Hm/hz140L) VH: QVQLVQSGAEVKKPGASVKVSCKASGYKFTNYVMHWVRQAPGQRLEWMGYINPYNDGIKYNEKFTGRVTITRDTSASTAYMELSSLRSEDTAVYYCAREGDFYANYGRLGFDYWGQGTLVTVSS VL: DIQMTQSPSSLSASVGDRVTITCRASQDITNYLNWYQQKPGKAPKLLIYYTSRLHSGVPSRFSGSGSGTDYTFTISSLQPEDIATYFCQQGDTFPRTFGGGTKVEIK
22.6 nM | 0.00707 s⁻¹ | 313000 M⁻¹ s⁻¹ | 140Hm6/hz140L (Table 2) (antibody, V domains shown, also called hz140-Hm/hz140L) VH: QVQLVQSGAEVKKPGASVKVSCKASGYKFTNYVMHWVRQAPGQRLEWMGYINPYNDGIKYNEKFQGRVTITRDTSASTAYMELSSLRSEDTAVYYCAREGDFYANYGRLGFAYWGQGTLVTVSS VL: DIQMTQSPSSLSASVGDRVTITCRASQDITNYLNWYQQKPGKAPKLLIYYTSRLHSGVPSRFSGSGSGTDYTFTISSLQPEDIATYFCQQGDTFPRTFGGGTKVEIK
3.92 nM | 0.000847 s⁻¹ | 216000 M⁻¹ s⁻¹ | 140Hm9/hz140L (Table 2) (antibody, V domains shown, also called hz140-Hm/hz140L) VH: QVQLVQSGAEVKKPGASVKVSCKASGYKFTNYVMHWVRQAPGQRLEWMGYINPYNEGIKYNEKFTGRVTITRDTSASTAYMELSSLRSEDTAVYYCAREGDFYANYGRLGFAYWGQGTLVTVSS VL: DIQMTQSPSSLSASVGDRVTITCRASQDITNYLNWYQQKPGKAPKLLIYYTSRLHSGVPSRFSGSGSGTDYTFTISSLQPEDIATYFCQQGDTFPRTFGGGTKVEIK
7.83 nM | 0.00202 s⁻¹ | 258000 M⁻¹ s⁻¹ | 140Hm10/hz140L (Table 2) (antibody, V domains shown, also called hz140-Hm/hz140L) VH: QVQLVQSGAEVKKPGASVKVSCKASGYKFTNYVMSWVRQAPGQRLEWMGYINPYNDAIKYNEKFTGRVTITRDTSASTAYMELSSLRSEDTAVYYCAREGDFYANYGRLGFAYWGQGTLVTVSS VL: DIQMTQSPSSLSASVGDRVTITCRASQDITNYLNWYQQKPGKAPKLLIYYTSRLHSGVPSRFSGSGSGTDYTFTISSLQPEDIATYFCQQGDTFPRTFGGGTKVEIK
20.8 nM | 0.00467 s⁻¹ | 224000 M⁻¹ s⁻¹ | 140Hm5/hz140L (Table 2) (antibody, V domains shown, also called hz140-Hm/hz140L) VH: QVQLVQSGAEVKKPGASVKVSCKASGYKFTNYVMHWVRQAPGQRLEWMGYINPGNDGIKYNEKFTGRVTITRDTSASTAYMELSSLRSEDTAVYYCAREGDFYANYGRLGFAYWGQGTLVTVSS VL: DIQMTQSPSSLSASVGDRVTITCRASQDITNYLNWYQQKPGKAPKLLIYYTSRLHSGVPSRFSGSGSGTDYTFTISSLQPEDIATYFCQQGDTFPRTFGGGTKVEIK

target: T2, CD47 on the surface of tumor cells (human, UniProt Q08722 19-323); assay: FACS, tumor cells, 1 nM
T2 construct: whole, on cells; Same protein as m4; also called CD47 antigen on the surface of U937 and CCRF cells; SKOV-3
Method: The difference between the binding of the mutant to CD47 on the surface of tumor cells and CD47 on the surface of red blood cells was evaluated.

FACS (MFI) | Binder
26400 MFI | h140Hm13/h140Lm8 (antibody, V domains shown, also called h140Lmut8; mut8) VH: EVQLVQSGAEVKKPGASVKVSCKASGYKFTNYVMSWVRQAPGQRLEWMGYINPYNDAIKYNEKFTGRVTITRDTSASTAYMELSSLRSEDTAVYYCAREGDFYANYGRLGFAYWGQGTLVTVSS VL: DIQMTQSPSSLSASVGDRVTITCRASQDITNYLNWYQQKPGKAPKLLIYYTSRLHSGVPSRFSGSGSGTDYTFTISSLQPEDIATYFCQQGDTRPYTFGGGTKVEIK
7520 MFI | h140Hm13/h140Lm14 (antibody, V domains shown) VH: EVQLVQSGAEVKKPGASVKVSCKASGYKFTNYVMSWVRQAPGQRLEWMGYINPYNDAIKYNEKFTGRVTITRDTSASTAYMELSSLRSEDTAVYYCAREGDFYANYGRLGFAYWGQGTLVTVSS VL: DIQMTQSPSSLSASVGDRVTITCRASQDITNYLNWYQQKPGKAPKLLIYYTSRLQSGVPSRFSGSGSGTDYTFTISSLQPEDIATYFCQQGDTYPYTFGGGTKVEIK
12200 MFI | h140Hm13/h140Lm16 (antibody, V domains shown) VH: EVQLVQSGAEVKKPGASVKVSCKASGYKFTNYVMSWVRQAPGQRLEWMGYINPYNDAIKYNEKFTGRVTITRDTSASTAYMELSSLRSEDTAVYYCAREGDFYANYGRLGFAYWGQGTLVTVSS VL: DIQMTQSPSSLSASVGDRVTITCRASQDITNYLNWYQQKPGKAPKLLIYYTSRLQSGVPSRFSGSGSGTDYTFTISSLQPEDIATYFCQQGDTSPYTFGGGTKVEIK
40900 MFI | h140Hm13/h140Lm10 (antibody, V domains shown, also called h140Lmut10; mut10) VH: EVQLVQSGAEVKKPGASVKVSCKASGYKFTNYVMSWVRQAPGQRLEWMGYINPYNDAIKYNEKFTGRVTITRDTSASTAYMELSSLRSEDTAVYYCAREGDFYANYGRLGFAYWGQGTLVTVSS VL: DIQMTQSPSSLSASVGDRVTITCRASQDITNYLNWYQQKPGKAPKLLIYYTSRLHSGVPSRFSGSGSGTDYTFTISSLQPEDIATYFCQQGAGRPYTFGGGTKVEIK
26400 MFI | h140Hm13/h140Lm12 (antibody, V domains shown) VH: EVQLVQSGAEVKKPGASVKVSCKASGYKFTNYVMSWVRQAPGQRLEWMGYINPYNDAIKYNEKFTGRVTITRDTSASTAYMELSSLRSEDTAVYYCAREGDFYANYGRLGFAYWGQGTLVTVSS VL: DIQMTQSPSSLSASVGDRVTITCRASQDITNYLNWYQQKPGKAPKLLIYYTSRLQSGVPSRFSGSGSGTDYTFTISSLQPEDIATYFCQQGDTRPYTFGGGTKVEIK
19400 MFI | h140Hm13/h140Lm11 (antibody, V domains shown) VH: EVQLVQSGAEVKKPGASVKVSCKASGYKFTNYVMSWVRQAPGQRLEWMGYINPYNDAIKYNEKFTGRVTITRDTSASTAYMELSSLRSEDTAVYYCAREGDFYANYGRLGFAYWGQGTLVTVSS VL: DIQMTQSPSSLSASVGDRVTITCRASQDITNYLNWYQQKPGKAPKLLIYYTSRLSSGVPSRFSGSGSGTDYTFTISSLQPEDIATYFCQQGDTRPYTFGGGTKVEIK
10300 MFI | h140Hm13/h140Lm13 (antibody, V domains shown) VH: EVQLVQSGAEVKKPGASVKVSCKASGYKFTNYVMSWVRQAPGQRLEWMGYINPYNDAIKYNEKFTGRVTITRDTSASTAYMELSSLRSEDTAVYYCAREGDFYANYGRLGFAYWGQGTLVTVSS VL: DIQMTQSPSSLSASVGDRVTITCRASQDITNYLNWYQQKPGKAPKLLIYYTSRLHSGVPSRFSGSGSGTDYTFTISSLQPEDIATYFCQQGDTFPYTFGGGTKVEIK
15700 MFI | h140Hm13/h140Lm15 (antibody, V domains shown) VH: EVQLVQSGAEVKKPGASVKVSCKASGYKFTNYVMSWVRQAPGQRLEWMGYINPYNDAIKYNEKFTGRVTITRDTSASTAYMELSSLRSEDTAVYYCAREGDFYANYGRLGFAYWGQGTLVTVSS VL: DIQMTQSPSSLSASVGDRVTITCRASQDITNYLNWYQQKPGKAPKLLIYYTSRLQSGVPSRFSGSGSGTDYTFTISSLQPEDIATYFCQQGDTKPYTFGGGTKVEIK
